Test results: US20240228562A1 (Pieris, published 2024)

T1: recombinant rat CTGF protein (R&D Systems) (rat, UniProt Q9R1E9 25-347)
T1 construct: Bought; also called rCTGF
T1 sequence: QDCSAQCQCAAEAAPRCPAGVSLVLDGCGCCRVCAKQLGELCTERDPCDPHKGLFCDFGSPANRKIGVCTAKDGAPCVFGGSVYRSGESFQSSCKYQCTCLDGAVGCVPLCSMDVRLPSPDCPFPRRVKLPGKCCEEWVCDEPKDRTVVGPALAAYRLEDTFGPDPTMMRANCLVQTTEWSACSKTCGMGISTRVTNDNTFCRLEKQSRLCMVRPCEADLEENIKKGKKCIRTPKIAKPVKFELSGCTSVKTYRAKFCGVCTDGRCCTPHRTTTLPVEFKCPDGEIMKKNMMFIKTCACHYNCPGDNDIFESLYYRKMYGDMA

T2: cynomolgus CTGF (cynomolgus, UniProt I7G525 27-349)
T2 construct: also called cyCTGF
T2 sequence: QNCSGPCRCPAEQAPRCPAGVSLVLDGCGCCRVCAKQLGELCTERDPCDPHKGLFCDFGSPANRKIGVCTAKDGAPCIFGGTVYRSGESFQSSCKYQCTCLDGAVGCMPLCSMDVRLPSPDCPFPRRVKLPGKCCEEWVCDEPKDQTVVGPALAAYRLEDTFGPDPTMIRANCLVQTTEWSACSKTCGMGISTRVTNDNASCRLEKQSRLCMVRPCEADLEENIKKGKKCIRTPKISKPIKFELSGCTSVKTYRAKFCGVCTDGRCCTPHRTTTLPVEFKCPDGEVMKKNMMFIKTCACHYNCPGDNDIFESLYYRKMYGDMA

T3: mouse CTGF (Abbexa) (mouse, UniProt P29268 26-348, limits assumed)
T3 construct: also called Murine CTGF; mCTGF
T3 sequence (looked up): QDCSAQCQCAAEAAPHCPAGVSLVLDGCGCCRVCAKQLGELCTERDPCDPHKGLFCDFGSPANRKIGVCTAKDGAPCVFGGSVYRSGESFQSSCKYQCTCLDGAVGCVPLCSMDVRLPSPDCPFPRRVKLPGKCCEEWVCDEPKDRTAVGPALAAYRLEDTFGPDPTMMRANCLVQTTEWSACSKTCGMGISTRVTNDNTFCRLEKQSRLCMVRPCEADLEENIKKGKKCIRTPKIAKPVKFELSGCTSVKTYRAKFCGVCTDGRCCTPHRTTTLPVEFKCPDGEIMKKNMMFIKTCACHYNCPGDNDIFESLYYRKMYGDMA

T4: recombinant human CTGF protein (R&D Systems, SEQ ID NO: 79) (human, UniProt P29279 27-349)
T4 construct: Bought; also called human CTGF/CNN2; huCTGF
T4 sequence: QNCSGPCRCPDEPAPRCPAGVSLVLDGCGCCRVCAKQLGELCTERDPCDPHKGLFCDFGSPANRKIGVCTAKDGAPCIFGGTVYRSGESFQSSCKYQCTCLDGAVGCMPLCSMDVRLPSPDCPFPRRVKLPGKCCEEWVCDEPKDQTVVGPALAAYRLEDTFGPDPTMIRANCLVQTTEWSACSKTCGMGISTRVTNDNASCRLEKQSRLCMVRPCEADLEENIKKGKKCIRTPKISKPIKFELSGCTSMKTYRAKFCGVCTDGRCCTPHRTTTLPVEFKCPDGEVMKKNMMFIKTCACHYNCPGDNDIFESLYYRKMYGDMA


Key:
[1] = target: T5, recombinant human CTGF-Fc protein (Creative Biomart) (human); assay: SPR (Biacore)
T5 construct: Bought; also called human CTGF with a human IgG1 Fc Tag
Description: (§1) The binding of exemplary lipocalin muteins to human (Creative Biomart), cynomolgus, rat (R&D Systems) and mouse CTGF (Abbexa) was determined by SPR using a Biacore instrument (Cytiva, formerly GE Healthcare). Some targets were fused to a human IgG1 Fc tag, and captured via the anti-human IgG antibody kit, others were directly immobilized.
(§2) For some measurements, human CTGF with a human IgG1 Fc Tag or rat or murine CTGF without a tag were directly immobilized to a CM5 Chip. The carboxyl groups on the chip were activated using 1-ethyl-3-(3-dimethylaminopropyl)-carbodiimide (EDC) and N-hydroxysuccinimide (NHS). […] Residual non-reacted NHS-esters were blocked by passing a solution of 1 M ethanolamine across the surface. The reference channel was activated/deactivated. For the capture setting, targets with an IgG Fc Tag at 0.25-2.5 μg/mL in HBS-EP+ buffer were captured by the anti-human IgG-Fc antibody at the chip surface for 180 s at a flow rate of 10 μL/min.
(§3) The binding assay was carried out with a contact time of 180 s, a dissociation time of 900-3600 s and a flow rate of 30 μL/min. All measurements were performed at 25° C. […] For the directly immobilized targets, the same regeneration conditions were used. Prior to the protein measurements, three startup cycles were performed for conditioning purposes.

[2] = target: T1, recombinant rat CTGF protein (R&D …); assay: SPR (Biacore)
Description: as §1, §2, §3

cynomolgus CTGF = target: T2, cynomolgus CTGF; assay: SPR (Biacore)
Description: as §1, §2, §3

mouse CTGF (Abbexa) = target: T3, mouse CTGF (Abbexa); assay: SPR (Biacore)
Description: as §1, §2, §3

[3] = target: T4, recombinant human CTGF protein (R&D …); assay: HTRF, 1 nM biotinylated human CTGF
Description: Binding of some fusion proteins was tested by a Homogeneous Time Resolved Fluorescence (HTRF assay). In detail, 1 nM of biotinylated human CTGF (R&D Systems) was incubated for 1 h with a titration of some lipocalins starting at 5 nM in 384 Flat Bottom White Polystyrol microtiter plate (Greiner). Samples were diluted in PBS containing 0.1% Tween 20 and 2% BSA. As donor, Streptavidin-Terbium at a concentration of 0,006 μg/mL was used, the acceptor was 0.2 μg/mL anti-His-d2 (both CisBio). After another 1 h of incubation, the fluorescence intensity of the donor and acceptor on the plate was read using a fluorescence microplate reader M1000 (Tecan) with the standard settings recommended by CisBio. The calculated ratio of signals was used for the curve fitting performed in GraphPad Prism 7 software.

T5 sequence (chain, as listed by the source limits assumed): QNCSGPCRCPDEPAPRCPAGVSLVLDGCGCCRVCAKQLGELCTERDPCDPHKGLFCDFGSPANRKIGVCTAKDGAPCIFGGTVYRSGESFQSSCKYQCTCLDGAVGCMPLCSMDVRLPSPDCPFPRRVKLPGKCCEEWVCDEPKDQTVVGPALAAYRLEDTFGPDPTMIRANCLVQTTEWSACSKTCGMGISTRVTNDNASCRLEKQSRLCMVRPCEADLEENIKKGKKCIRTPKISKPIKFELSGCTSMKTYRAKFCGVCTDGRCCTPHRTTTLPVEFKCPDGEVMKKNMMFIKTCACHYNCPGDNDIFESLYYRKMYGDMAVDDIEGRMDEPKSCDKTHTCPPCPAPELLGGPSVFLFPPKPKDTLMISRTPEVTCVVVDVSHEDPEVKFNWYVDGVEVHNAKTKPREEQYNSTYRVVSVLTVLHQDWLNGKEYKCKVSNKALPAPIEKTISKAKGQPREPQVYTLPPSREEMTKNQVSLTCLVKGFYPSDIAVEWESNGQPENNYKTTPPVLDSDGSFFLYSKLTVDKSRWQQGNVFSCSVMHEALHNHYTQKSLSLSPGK

Row | Binder | Kd [1] | koff [1] | kon [1] | Kd [2] | koff [2] | kon [2] | Kd (cynomolgus CTGF) | koff (cynomolgus CTGF) | kon (cynomolgus CTGF) | Kd (mouse CTGF (Abbexa)) | koff (mouse CTGF (Abbexa)) | kon (mouse CTGF (Abbexa)) | EC50 [3]
1 | lipocalin mutein of SEQ ID NO: 22 (designed binder, also called hNGAL mutein; not shown: C-terminal His-tag) QDSTSDLIPAPPLSKVPLQQNFQDNQFQGKWYVVGIAGNAILRVDKQPAKMFATIYELKEDKSYDVTSVRFEAKSCVYTIKTFVPGSQPGEFTAGNIKSAPGQTSTLVRVVSTNYNQHAMVFFKHVSQNREIFVITLYGRTKELTSELKENFIRFSKSLGLPENHIVFPVPIDQCIDG | 0.057 nM | 8.05e-06 s⁻¹ | 142000 M⁻¹ s⁻¹ | 0.221 nM | 4.01e-05 s⁻¹ | 181000 M⁻¹ s⁻¹ |  |  |  |  |  |  | 
2 | lipocalin mutein of SEQ ID NO: 24 (designed binder, also called hNGAL mutein) QDSTSDLIPAPPLSKVPLQQNFQDNQFQGKWYVVGVAGNAILRTDKQPAKMFATIYELKEDKSYDVTSVRFEAKSCKYTIKTFVPGSQPGEFTAGNIKSAPGQTSTLVRVVSTNYNQHAMVFFKHVSQNREIFVITLYGRTKELTSELKENFIRFSKSLGLPENHIVFPVPIDQCIDG | 0.09 nM | 1.41e-05 s⁻¹ | 157000 M⁻¹ s⁻¹ | 0.255 nM | 3.51e-05 s⁻¹ | 138000 M⁻¹ s⁻¹ | 0.135 nM | 2.63e-05 s⁻¹ | 195000 M⁻¹ s⁻¹ | 0.034 nM | 1.16e-05 s⁻¹ | 299000 M⁻¹ s⁻¹ | 
3 | lipocalin mutein of SEQ ID NO: 31 (designed binder, also called hNGAL mutein; not shown: C-terminal His-tag) QDSTSDLIPAPPLSKVPLQQNFQDNQFQGKWYVVGWAGNVKLREDKQPQKMSATIYELKEDKSYDVTEVVFEQKKCHYIIKTFVPGSQPGEFTAGDIKSPPGYTSSLVRVVSTNYNQHAMVFFKKVSQNREFFWITLYGRTKELTSELKENFIRFSKSLGLPENHIVFPVPIDQCIDG | 0.249 nM | 4.85e-05 s⁻¹ | 195000 M⁻¹ s⁻¹ | 1.89 nM | 0.000423 s⁻¹ | 223000 M⁻¹ s⁻¹ | 0.452 nM | 7.31e-05 s⁻¹ | 162000 M⁻¹ s⁻¹ | 1.58 nM | 0.000444 s⁻¹ | 281000 M⁻¹ s⁻¹ | 
4 | lipocalin mutein of SEQ ID NO: 35 (designed binder, also called hNGAL mutein; not shown: C-terminal His-tag) QDSTSDLIPAPPLSKVPLQQNFQDNQFQGKWYVVGWAGNVKLREDKQPLKMSATIYELKEDKSYDVTEVVFEQKKCHYIIKTFVPGSQPGEFTAGDIKSPPGYTSSLVRVVSTNYNQHAMVFFKKVSQNREFFWITLYGRTKELTSELKENFIRFSKSLGLPENHIVFPVPIDQCIDG | 0.55 nM | 5.94e-05 s⁻¹ | 108000 M⁻¹ s⁻¹ | 1.42 nM | 0.000273 s⁻¹ | 193000 M⁻¹ s⁻¹ |  |  |  | 2.24 nM | 0.000287 s⁻¹ | 128000 M⁻¹ s⁻¹ | 
5 | lipocalin mutein of SEQ ID NO: 36 (designed binder, also called hNGAL mutein) QDSTSDLIPAPPLSKVPLQQNFQDNQFQGKWYVVGWAGNVKLREDKQPAKMSATIYELKEDKSYDVTEVVFEQKKCHYIIKTFVPGSQPGEFTAGDIKSPPGYTSSLVRVVSTNYNQHAMVFFKKVGQNREFFWITLYGRTKELTSELKENFIRFSKSLGLPENHIVFPVPIDQCIDG | 0.42 nM | 6.95e-05 s⁻¹ | 165000 M⁻¹ s⁻¹ |  |  |  | 0.695 nM | 9.77e-05 s⁻¹ | 141000 M⁻¹ s⁻¹ | 1.68 nM | 0.00052 s⁻¹ | 310000 M⁻¹ s⁻¹ | 
6 | lipocalin mutein of SEQ ID NO: 34 (designed binder, also called hNGAL mutein) QDSTSDLIPAPPLSKVPLQQNFQDNQFQGKWYVVGWAGNVILREDKQPFKMSATIYELKEDKSYDVTEVVFEQKKCHYIIKTFVPGSQPGEFTLGDIKSPPGETSTLVRVVSTNYNQHAMVFFKKVSQNREFFWITLYGRTKELTSELKENFIRFSKSLGLPENHIVFPVPIDQCIDG | 1.13 nM | 0.000169 s⁻¹ | 150000 M⁻¹ s⁻¹ |  |  |  | 1.72 nM | 0.000238 s⁻¹ | 139000 M⁻¹ s⁻¹ | 11.9 nM | 0.00286 s⁻¹ | 240000 M⁻¹ s⁻¹ | 
7 | lipocalin mutein of SEQ ID NO: 33 (designed binder, also called hNGAL mutein; not shown: C-terminal His-tag) QDSTSDLIPAPPLSKVPLQQNFQDNQFQGKWYVVGWAGNAKLREDKQPFKMSATIYELKEDKSYDVTEVVFEQKKCHYIIKTFVPGSQPGEFTEGNYKRRPRLWSDLVRVVSTNYNQHAMVFFKKVHQNREFFWITLYGRTKELTSELKENFIRFSKSLGLPENHIVFPVPIDQCIDG | 0.099 nM | 1.71e-05 s⁻¹ | 172000 M⁻¹ s⁻¹ | 0.226 nM | 6.3e-05 s⁻¹ | 279000 M⁻¹ s⁻¹ |  |  |  | 0.301 nM | 5.29e-05 s⁻¹ | 176000 M⁻¹ s⁻¹ | 
8 | fusion protein of SEQ ID NO: 68 (designed binder, not shown: C-terminal His-tag) QDSTSDLIPAPPLSKVPLQQNFQDNQFQGKWYVVGLAGNAILREDKQPAKMFATIYELKEDKSYDVTSVRFEAKSCSYTSKTFVPGSQPGEFTAGNIKSAPGQTSTLVRVVSTNYNQHAMVFFKHVSQNRETFVITLYGRTKELTSELKENFIRFSKSLGLPENHIVFPVPIDQCIDGGGGGSGGGGSGGGGSQDSTSDLIPAPPLSKVPLQQNFQDNQFQGKWYVVGWAGNVKLREDKQPQKMSATIYELKEDKSYDVTEVVFEQKKCHYIIKTFVPGSQPGEFTAGDIKSPPGYTSSLVRVVSTNYNQHAMVFFKKVSQNREFFWITLYGRTKELTSELKENFIRFSKSLGLPENHIVFPVPIDQCIDG |  |  |  |  |  |  |  |  |  |  |  |  | 0.56 nM
9 | fusion protein of SEQ ID NO: 71 (designed binder, not shown: C-terminal His-tag) QDSTSDLIPAPPLSKVPLQQNFQDNQFQGKWYVVGLAGNAILREDKYPAKMFATIYELKEDKSYDVTSVRFENKSCVYTIKTFVPGSQPGEFTTGNIKSAPGQTSTLVRVVSTNYNQHAMVFFKHVSQNREFFVITLYGRTKELTSELKENFIRFSKSLGLPENHIVFPVPIDQCIDGGGGGSGGGGSGGGGSQDSTSDLIPAPPLSKVPLQQNFQDNQFQGKWYVVGWAGNVKLREDKQPQKMSATIYELKEDKSYDVTEVVFEQKKCHYIIKTFVPGSQPGEFTAGDIKSPPGYTSSLVRVVSTNYNQHAMVFFKKVSQNREFFWITLYGRTKELTSELKENFIRFSKSLGLPENHIVFPVPIDQCIDG |  |  |  |  |  |  |  |  |  |  |  |  | 0.94 nM
